We go through 1 substance from patent publication US6482607.

For the data set, the target named is SP-Dis-PyCter (Dis-PyCter carrying an amino terminal ER-translocation signal from D. discoideum PsA) (UniProt P02886).
SP-Dis-PyCter (Dis-PyCter carrying an amino terminal ER-translocation signal from D. discoideum PsA), sequence (P02886 other isoform, or with tags, fused parts or gaps): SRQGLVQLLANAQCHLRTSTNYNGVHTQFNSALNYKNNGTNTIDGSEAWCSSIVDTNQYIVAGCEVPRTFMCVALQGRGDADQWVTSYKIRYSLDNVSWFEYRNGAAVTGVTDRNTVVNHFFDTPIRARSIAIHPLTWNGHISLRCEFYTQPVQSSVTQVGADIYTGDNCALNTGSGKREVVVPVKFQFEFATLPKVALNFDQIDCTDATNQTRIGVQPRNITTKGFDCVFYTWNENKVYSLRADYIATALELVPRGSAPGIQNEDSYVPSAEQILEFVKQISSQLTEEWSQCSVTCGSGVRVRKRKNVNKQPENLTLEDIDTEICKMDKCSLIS

As to human thrombin, the “size of the recombinant protein on Western blot after incubation with increasing thrombin (units/ml)” value is “the size of the recombinant protein decreased with increasing thrombin concentrations”.
